This is an account of results in publication PMC5980995, “An allostatic mechanism for M2 pyruvate kinase as an amino-acid sensor” (Biochemical Journal, 2018).

This data set concerns the molecule itself. Kind of data set: cell-based or functional assay.

B1: M2 isoenzyme of pyruvate kinase (M2PYK), human, N-terminal His6 tag (enzyme)
chain: not shown
On to B1, for which the “half-life of the loss of enzyme activity (LDH-coupled assay) after dilution from 20 mg/ml to 0.002 mg/ml in PBS-CM pH 7.4, taken as dissociation of the tetramer” value is approximately 15 min.
